In paper PMC3306252 (Nature, 2012):

Experiments:
[1] = target: Srs2(1137-1174) (S. cerevisiae) (UniProt P12954); assay: fluorescence polarisation
[2] = target: BODIPY-FL Srs2(1107-1174) (S. cerevisiae) (UniProt P12954); assay: fluorescence polarisation
crystal structure [3] = target: the molecule itself; assay: crystal structure
Srs2(1107-1174) Q1149E = target: T1, Srs2(1107-1174) Q1149E (S. cerevisiae, UniProt P12954 1107-1174, Q1149E, BODIPY-FL conjugated (FP was done with BODIPY-FL conjugated Srs2)); assay: fluorescence polarisation
T1 sequence: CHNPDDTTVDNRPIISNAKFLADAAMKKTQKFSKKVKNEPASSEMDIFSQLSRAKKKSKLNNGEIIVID

Srs2(1107-1174) L1156A = target: T2, Srs2(1107-1174) L1156A (S. cerevisiae, UniProt P12954 1107-1174, L1156A, BODIPY-FL conjugated (FP was done with BODIPY-FL conjugated Srs2)); assay: fluorescence polarisation
T2 sequence: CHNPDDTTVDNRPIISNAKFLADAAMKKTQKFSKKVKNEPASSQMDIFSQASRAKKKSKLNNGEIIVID

Srs2(1107-1174) D1151A = target: T3, Srs2(1107-1174) D1151A (S. cerevisiae, UniProt P12954 1107-1174, D1151A, BODIPY-FL conjugated (FP was done with BODIPY-FL conjugated Srs2)); assay: fluorescence polarisation
T3 sequence: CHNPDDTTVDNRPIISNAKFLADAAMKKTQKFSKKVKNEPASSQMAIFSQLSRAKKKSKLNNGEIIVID

Srs2(1107-1174) F1153A = target: T4, Srs2(1107-1174) F1153A (S. cerevisiae, UniProt P12954 1107-1174, F1153A, BODIPY-FL conjugated (FP was done with BODIPY-FL conjugated Srs2)); assay: fluorescence polarisation
T4 sequence: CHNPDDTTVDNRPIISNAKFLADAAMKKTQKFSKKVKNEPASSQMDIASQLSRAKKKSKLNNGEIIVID

Srs2(1107-1174) Q1155E = target: T5, Srs2(1107-1174) Q1155E (S. cerevisiae, UniProt P12954 1107-1174, Q1155E, BODIPY-FL conjugated (FP was done with BODIPY-FL conjugated Srs2)); assay: fluorescence polarisation
T5 sequence: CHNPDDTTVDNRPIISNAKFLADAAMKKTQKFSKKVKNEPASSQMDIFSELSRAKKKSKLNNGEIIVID

Srs2(1107-1174) I1152A = target: T6, Srs2(1107-1174) I1152A (S. cerevisiae, UniProt P12954 1107-1174, I1152A, BODIPY-FL conjugated (FP was done with BODIPY-FL conjugated Srs2)); assay: fluorescence polarisation
T6 sequence: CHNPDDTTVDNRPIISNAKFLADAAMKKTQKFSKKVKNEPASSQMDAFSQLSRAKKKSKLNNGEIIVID

His6-Eco1 = target: T7, His6-Eco1 (S. cerevisiae, UniProt P43605 1-281); assay: pull-down
T7 sequence (looked up): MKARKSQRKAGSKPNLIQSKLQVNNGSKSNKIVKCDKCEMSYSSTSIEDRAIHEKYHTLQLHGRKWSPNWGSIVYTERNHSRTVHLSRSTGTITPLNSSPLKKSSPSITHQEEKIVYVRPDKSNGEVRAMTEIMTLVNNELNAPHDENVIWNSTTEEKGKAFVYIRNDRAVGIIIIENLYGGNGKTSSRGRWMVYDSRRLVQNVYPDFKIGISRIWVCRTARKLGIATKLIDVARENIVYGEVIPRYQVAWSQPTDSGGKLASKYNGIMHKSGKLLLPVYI

crystal structure [4] = target: the molecule itself; assay: crystal structure; remark: listed apart in the source

With “GST-SUMO (from UniProt Q12306 1-101) (natural protein)” the fold weaker than Srs2(1107-1174) [1] was 4 fold and the Kd [2] was 877 nM.

“PCNA (yeast proliferating cell nuclear antigen, trimer; variant not named) (from UniProt P15873 1-258) (natural protein)” showed a fold weaker than Srs2(1107-1174) [1] of 3 fold and a Kd [2] of 169 nM.

In the case of “PCNA^mono (N-ethylmaleimide-treated PCNA) (from UniProt P15873 1-258) (natural protein)”, the fold worse than PCNA^tri [2] is reported as 6.5 fold.

“SUMO_K127-PCNA^mono (PCNA K164R) (from UniProt P15873 1-258; Q12306 19-98) (complex)” showed a Kd [2] of 14 nM.

“SUMO_K127-PCNA^tri (PCNA K164R) (from UniProt P15873 1-258; Q12306 19-98) (complex)” gave a Kd [2] of 25.1 nM.

In the case of “SUMO_K164-PCNA^mono K127G (from UniProt P15873 1-258; Q12306 19-98) (complex)”, the Kd [2] is reported as 79 nM.

Work on “SUMO_K164-PCNA^tri K127G (from UniProt P15873 1-258; Q12306 19-98) (complex)” yielded a fold tighter than Srs2(1107-1174) [1] of 8 fold and a Kd [2] of 26.3 nM.

B1: PCNA^tri K127G (natural protein, budding yeast)
chain: MLEAKFEEASLFKRIIDGFKDCVQLVNFQCKEDGIIAQAVDDSRVLLVSLEIGVEAFQEYRCDHPVTLGMDLTSLSKILRCGNNTDTLTLIADNTPDSIILLFEDTKKDRIAEYSLKLMDIDADFLGIEELQYDSTLSLPSSEFSKIVRDLSQLSDSINIMITKETIKFVADGDIGSGSVIIKPFVDMEHPETSIKLEMDQPVDLTFGAKYLLDIIKGSSLSDRVGIRLSSEAPALFQFDLKSGFLQFFLAPKFNDEE
For B1, the “stoichiometry N” value (crystal structure [3]) was 3, the “fold defect in Kd against wild-type Srs2(1107-1174)” value (from here on “fold defect in Kd”) (Srs2(1107-1174) Q1149E) was 3 fold and the “fold reduced affinity against wild-type Srs2(1107-1174)” value (from here on “fold reduced affinity”) (Srs2(1107-1174) L1156A) was 73 fold. The “fold defect in Kd” value (Srs2(1107-1174) D1151A) was 10 fold, the “fold reduced affinity” value (Srs2(1107-1174) F1153A) was 9 fold and the “fold reduced affinity” value (Srs2(1107-1174) Q1155E) was 31 fold. The “fold defect in Kd” value (Srs2(1107-1174) I1152A) was 60 fold.

B2: PCNA FLKI(125-128)AAAA (natural protein, budding yeast)
chain: MLEAKFEEASLFKRIIDGFKDCVQLVNFQCKEDGIIAQAVDDSRVLLVSLEIGVEAFQEYRCDHPVTLGMDLTSLSKILRCGNNTDTLTLIADNTPDSIILLFEDTKKDRIAEYSLKLMDIDADAAAAEELQYDSTLSLPSSEFSKIVRDLSQLSDSINIMITKETIKFVADGDIGSGSVIIKPFVDMEHPETSIKLEMDQPVDLTFGAKYLLDIIKGSSLSDRVGIRLSSEAPALFQFDLKSGFLQFFLAPKFNDEE
B2: binds (His6-Eco1).

B3: PCNA K127G, NEM-modified (the PCNA part of SUMO_K164-PCNA^mono) (natural protein, budding yeast)
chain: MLEAKFEEASLFKRIIDGFKDCVQLVNFQCKEDGIIAQAVDDSRVLLVSLEIGVEAFQEYRCDHPVTLGMDLTSLSKILRCGNNTDTLTLIADNTPDSIILLFEDTKKDRIAEYSLKLMDIDADFLGIEELQYDSTLSLPSSEFSKIVRDLSQLSDSINIMITKETIKFVADGDIGSGSVIIKPFVDMEHPETSIKLEMDQPVDLTFGAKYLLDIIKGSSLSDRVGIRLSSEAPALFQFDLKSGFLQFFLAPKFNDEE
modifications: N-ethylmaleimide on C22 and C81; K164 conjugated to SUMO G98
B3: binds (crystal structure [4]).
